In PMC6003364:

Assays:
[1] = target: periplasmic domain of TraE (plasmid pKM101); experiment: cross-linking
[2] = target: N-terminally His-tagged, full-length TraE (VirB8 homolog) from plasmid pKM101 (plasmid pKM101); experiment: negative-stain EM

periplasmic domain of TraE (domain or fragment)
stoichiometry N [1]: 2

N-terminally His-tagged, full-length TraE (VirB8 homolog) from plasmid pKM101 (natural protein)
stoichiometry N [2]: 6
